Data as given in patent publication US11604185B2 (priority 2007, dated 2023).
Where no end group is shown, it is not given here. [ ]: non-standard residue; d: D form. The star is where a group is joined. 5FAM = O=C1OC2(c3ccc(O)cc3Oc3cc(O)ccc32)c2ccc(C(=O)*)cc21; Dabcyl = CN(C)c1ccc(N=Nc2ccc(C(=O)*)cc2)cc1; Nle = CCCC[C@H](N)C(=O)O

Tests used:
[1] = test system: BoNT/A holotoxin, complex or the non-toxic LCs; assay type: biochemical, Clostridium botulinum
BoNT/A complex [2] = molecular target: T1, BoNT/A complex (Clostridium botulinum, UniProt P0DPI1); assay type: biochemical
BoNT/A light chain = BoNT/A light chain (Clostridium botulinum, UniProt P0DPI0)
BoNT/A complex [3] = molecular target: T1, BoNT/A complex
Trypsin [4] = molecular target: T2, Trypsin (Sus scrofa, UniProt P00761); assay type: biochemical
Thermolysin = Thermolysin (Bacillus thermoproteolyticus, UniProt P00800)
BoNT/A subtypes A1 to A5 = assay type: biochemical, Clostridium botulinum
Proteinase K = Proteinase K (Parengyodontium album, UniProt P06873); assay type: biochemical
Trypsin [5] = molecular target: T2, Trypsin; assay type: biochemical; remark: listed apart in the source
BoNT/B = BoNT/B (Clostridium botulinum, UniProt P10844)

Chain of BoNT/A light chain (P0DPI0 2-448 limits assumed): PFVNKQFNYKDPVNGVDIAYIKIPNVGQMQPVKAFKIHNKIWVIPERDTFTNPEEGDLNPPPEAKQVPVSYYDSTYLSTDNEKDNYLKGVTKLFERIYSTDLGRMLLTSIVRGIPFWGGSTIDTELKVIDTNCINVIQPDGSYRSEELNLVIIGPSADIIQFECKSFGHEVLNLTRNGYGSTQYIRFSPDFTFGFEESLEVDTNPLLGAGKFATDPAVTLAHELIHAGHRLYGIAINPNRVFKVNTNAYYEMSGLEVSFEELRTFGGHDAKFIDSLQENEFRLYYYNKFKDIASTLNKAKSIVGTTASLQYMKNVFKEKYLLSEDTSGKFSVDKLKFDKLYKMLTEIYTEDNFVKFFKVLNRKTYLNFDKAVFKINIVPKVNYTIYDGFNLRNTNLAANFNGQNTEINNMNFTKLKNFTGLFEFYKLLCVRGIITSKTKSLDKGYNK

Compound: 5FAM-KIDEANQRATK(Dabcyl)[Nle]-NH2 [SEQ ID NO: 14]
- cleavable by BoNT/A holotoxin, complex or non-toxic LCs alone [1]: can be cleaved

Compound: c1ccc(CN(CCN(Cc2ccccn2)Cc2ccccn2)Cc2ccccn2)nc1 [TPEN, N,N,N′,N′-Tetrakis (2-pyridylmethyl) ethylenediamine, reference compound]
- effect on BoNT metalloprotease activity (BoNT/A complex [2]): suppressed BoNT metalloprotease activity

Compound: Fam-K[5-Fam]IDEANQRATK[DABCYL]Nle-amide [SEQ ID NO: 13]
- cleavable by BoNT/A holotoxin, complex or non-toxic LCs alone [1]: can be cleaved

Compound: K(5FAM)IDEANQRATK(Dabcyl)[Nle]-NH2 [#201]
- cleavable by BoNT/A holotoxin, complex or non-toxic LCs alone [1]: can be cleaved

Compound: K[5FAM]-IDEANQRATK[DABCYL]-Hex-CONH2 [#204]
- cleavage in microcolumn ALISSA (BoNT/A light chain): does not cleave the control peptide

Compound: [4-Mu]TRIDEANQRATK[DABCYL] ({4‑Mu}-TRIDEANQRATK; not fully specified (residue 12); also: DABCYL label at C-terminal K, side chain or terminus not clear) [#111]
- cleavage by BoNT/A complex (BoNT/A complex [3]): not by BoNT/A complex
- cleavage by trypsin (Trypsin [4]): cleaved by trypsin

Compound: [4-Mu]TRIDEANQRATK[DABCYL]-Hex ({4‑Mu}-TRIDEANQRATK; not fully specified (residue 12, C-terminus); also: DABCYL label and hexyl (-Hex) at C-terminal K, placement not clear) [#113]
- Km (Thermolysin): 6.45 ± 0.8 µM
- kcat (Thermolysin): 14.66 ± 0.71 s⁻¹
- cleaved by BoNT/A subtypes (recombinant LCs) (BoNT/A subtypes A1 to A5): None
- cleavage by BoNT/A complex (BoNT/A complex [3]): not by BoNT/A complex
- Km (Proteinase K): 4.87 ± 0.96 µM
- kcat (Proteinase K): 30.64 ± 2.17 s⁻¹
- Km (Trypsin [5]): 13.3 ± 2.7 µM
- kcat (Trypsin [5]): 83.90 ± 8.35 s⁻¹
- cleavage by trypsin (Trypsin [4]): cleaved by trypsin

Compound: [5-Fam]TRIDEANQRATK[DABCYL] (5FAM-TRIDEANQRATK; not fully specified (residue 12); also: DABCYL label at C-terminal K, side chain or terminus not clear) [#110]
- cleavage by BoNT/A complex (BoNT/A complex [3]): not by BoNT/A complex
- cleavage by trypsin (Trypsin [4]): cleaved by trypsin

Compound: [5-Fam]TRIDEANQRATK[DABCYL]-Hex (5FAM-TRIDEANQRATK; not fully specified (residue 12, C-terminus); also: DABCYL label and hexyl (-Hex) at C-terminal K, placement not clear) [#112]
- Km (Thermolysin): 3.58 ± 0.76 µM
- kcat (Thermolysin): 24.26 ± 1.72 s⁻¹
- cleaved by BoNT/A subtypes (recombinant LCs) (BoNT/A subtypes A1 to A5): None
- cleavage by BoNT/B serotype (BoNT/B): not cleaved
- cleavage by BoNT/A complex (BoNT/A complex [3]): not by BoNT/A complex
- cleavage by BoNT/A serotype (BoNT/A complex [3]): not cleaved
- Km (Proteinase K): 3.37 ± 0.67 µM
- kcat (Proteinase K): 50.73 ± 3.28 s⁻¹
- Km (Trypsin [5]): 3.75 ± 0.79 µM
- kcat (Trypsin [5]): 58.72 ± 4.17 s⁻¹
- cleavage upon addition of increasing concentrations of BoNT/A complex (BoNT/A complex [2]): only little cleavage
- cleavage by trypsin (Trypsin [4]): cleaved by trypsin
